Columns and labels:
Experiment in all cases: AUC
[1] = biological target: I-CreI 28K30N33H38Q40S44K68E70G75N (combinatorial mutant KNHQS/KEG) (Chlamydomonas reinhardti)
[2] = biological target: I-CreI 28N30N33S38R40K44A68S70R75N (combinatorial mutant NNSRK/ASR) (Chlamydomonas reinhardti)
[3] = biological target: I-CreI 28N30N33S38R40K44A68R70R75N (combinatorial mutant NNSRK/ARR) (Chlamydomonas reinhardti)
[4] = biological target: I-CreI 28K30N33H38Q40S44K68A70S75N (combinatorial mutant KNHQS/KAS) (Chlamydomonas reinhardti)

**Q.** With “I-CreI 28K30N33H38Q40S44K68E70G75N (combinatorial mutant KNHQS/KEG) (enzyme)” as the substance, how does the stoichiometry N [1] read?
**A.** The stoichiometry N was 2.

**Q.** Which stoichiometry N [2] does the source give for “I-CreI 28N30N33S38R40K44A68S70R75N (combinatorial mutant NNSRK/ASR) (enzyme)” here?
**A.** The stoichiometry N was 2.

**Q.** How did the stoichiometry N [3] turn out when “I-CreI 28N30N33S38R40K44A68R70R75N (combinatorial mutant NNSRK/ARR) (enzyme)” was run?
**A.** The stoichiometry N was 2.

**Q.** With “I-CreI 28K30N33H38Q40S44K68A70S75N (combinatorial mutant KNHQS/KAS) (enzyme)” as the substance, how does the stoichiometry N [4] read?
**A.** Its stoichiometry N is 2.

Source: publication PMC1702487
